Source: patent US20190375795A1 (CGTX PEPTIDE DEVELOPMENT, published 2019)

Experiments:
[1] = biological target: T1, Kv1.5 (UniProt P22460 1-613); experiment: planar patch clamp (Port-A-Patch), channel expressed in cells
T1 construct: whole, on cells

[2] = biological target: human Kv1.3 (hKv1.3) channel (human, UniProt P22001 1-575); experiment: cell-based or functional assay
Sequence of human Kv1.3 (hKv1.3) channel (P22001 whole entry): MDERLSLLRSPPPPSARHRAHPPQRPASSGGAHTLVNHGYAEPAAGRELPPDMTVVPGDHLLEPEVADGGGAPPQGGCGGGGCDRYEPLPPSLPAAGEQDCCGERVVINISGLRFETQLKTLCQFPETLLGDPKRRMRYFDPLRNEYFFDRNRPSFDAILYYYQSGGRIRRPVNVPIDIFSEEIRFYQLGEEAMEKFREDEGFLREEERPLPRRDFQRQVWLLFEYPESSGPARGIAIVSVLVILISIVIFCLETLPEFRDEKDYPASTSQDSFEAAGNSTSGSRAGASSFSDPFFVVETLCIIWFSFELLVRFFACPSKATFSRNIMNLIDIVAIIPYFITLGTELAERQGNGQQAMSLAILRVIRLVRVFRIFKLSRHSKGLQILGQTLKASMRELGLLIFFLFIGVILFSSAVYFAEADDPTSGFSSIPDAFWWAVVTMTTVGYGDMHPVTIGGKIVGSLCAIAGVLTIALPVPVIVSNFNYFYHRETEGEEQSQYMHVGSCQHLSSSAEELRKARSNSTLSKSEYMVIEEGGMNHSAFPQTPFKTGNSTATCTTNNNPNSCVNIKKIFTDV

T1 sequence (P22460 whole entry): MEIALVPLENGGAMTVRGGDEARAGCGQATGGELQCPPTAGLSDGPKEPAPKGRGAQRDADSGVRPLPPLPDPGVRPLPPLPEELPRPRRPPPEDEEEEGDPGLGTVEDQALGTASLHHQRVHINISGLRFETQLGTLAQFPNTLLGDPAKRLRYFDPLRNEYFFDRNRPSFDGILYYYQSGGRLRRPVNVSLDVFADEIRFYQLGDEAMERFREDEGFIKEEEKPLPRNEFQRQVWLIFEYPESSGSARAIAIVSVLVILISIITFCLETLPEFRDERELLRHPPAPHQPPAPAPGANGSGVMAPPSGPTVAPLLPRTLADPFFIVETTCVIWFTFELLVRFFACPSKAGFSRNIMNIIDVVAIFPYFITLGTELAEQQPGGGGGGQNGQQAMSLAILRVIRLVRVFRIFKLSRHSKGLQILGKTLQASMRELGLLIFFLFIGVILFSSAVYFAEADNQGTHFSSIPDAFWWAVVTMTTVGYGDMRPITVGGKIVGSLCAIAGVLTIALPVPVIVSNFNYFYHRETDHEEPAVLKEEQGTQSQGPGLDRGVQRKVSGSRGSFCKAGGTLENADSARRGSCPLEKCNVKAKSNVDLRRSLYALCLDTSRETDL

## ASCRTPKDCADPCRKETGCPYGKCMNRKCKCNRC (also called toxin HsTx 1) [HsTx 1]
[1]
  binding result: no binding
[2]
  selectivity for Kv1.3 vs. Kv1.1 (patch clamp IC50s): ~450 fold
